According to patent publication US20100098681A1 (Janssen / Centocor, published 2010):

B1: P190 phage, pIX display (190-phagemid) (peptide)
chain: GGGDPCTWEVWGRECLQGGGSGGSGG
notes: pIX phagemid display, on average one peptide per phage particle; also called PHPEP190; pIX-190; not shown: M13 phage coat protein pIX (MSVL...)
B2: P190-MMB construct 4314 (Fc fusion)
chain: GGDPCTWEVWGRECLQGGGSCPPCPAPEAAGGPSVFLFPPKPKDTLMISRTPEVTCVVVDVSQEDPEVQFNWYVDGVEVHNAKTKPREEQFNSTYRVVSVLTVLHQDWLNGKEYKCKVSNKGLPSSIEKTISKAKGQPREPQVYTLPPSQEEMTKNQVSLTCLVKGFYPSDIAVEWESNGQPENNYKTTPPVLDSDGSFFLYSRLTVDKSRWQEGNVFSCSVMHEALHNHYTQKSLSLSLGK
notes: GG, P190, Flex, human IgG4 hinge-CH2-CH3 with two Leu to Ala changes
B3: P175 phage (S15, pIX) (peptide)
chain: GGGLPDDSLPELICKVRGGGGSGGSGG
notes: pIX phagemid display; also called PP175; not shown: M13 phage coat protein pIX (MSVL...)
B4: P179 phage (S19, pIX) (peptide)
chain: GGGGPCVLIRDYYLLCLEGGGSGGSGG
notes: pIX phagemid display; also called PP179; not shown: M13 phage coat protein pIX (MSVL...)
B5: SEQ ID NO: 20 (S15 hit, pIX phage) (peptide)
chain: GGGTVFTLPELVCVVAGTGGGSGGSGG
notes: pIX phagemid display; not shown: M13 phage coat protein pIX (MSVL...)
B6: SEQ ID NO: 19 (S15 hit, pIX phage) (peptide)
chain: GGGGADTLPDLLCWESSLGGGSGGSGG
notes: as for B5
B7: SEQ ID NO: 12 (S15 hit, pIX phage) (peptide)
chain: GGGVSGILPILVCHPAATGGGSGGSGG
notes: as for B5
B8: SEQ ID NO: 15 (S15 hit, pIX phage) (peptide)
chain: GGGNWFSLPTLLCFPLNPGGGSGGSGG
notes: as for B5
B9: SEQ ID NO: 17 (S15 hit, pIX phage) (peptide)
chain: GGGPIDDESLPVLYCVTSGGGSGGSGG
notes: as for B5
B10: SEQ ID NO: 14 (S15 hit, pIX phage) (peptide)
chain: GGGHVSLQSLPELICVVSGGGSGGSGG
notes: as for B5
B11: SEQ ID NO: 21 (S15 hit, pIX phage) (peptide)
chain: GGGLPDLICAVDSGTSGAGGGSGGSGG
notes: as for B5
B12: SEQ ID NO: 11 (S15 hit, pIX phage) (peptide)
chain: GGGELGLPTLLCWPTDTLGGGSGGSGG
notes: as for B5
B13: SEQ ID NO: 16 (S15 hit, pIX phage) (peptide)
chain: GGGSTITSLPTLQCWPILGGGSGGSGG
notes: as for B5
B14: SEQ ID NO: 10 (S15 hit, pIX phage) (peptide)
chain: GGGYRLFVDESIFFCTRLGGGSGGSGG
notes: as for B5
B15: SEQ ID NO: 18 (S15 hit, pIX phage) (peptide)
chain: GGGPIFSSLPVLYCTSQLGGGSGGSGG
notes: as for B5
B16: SEQ ID NO: 27 (S18 hit, pIX phage) (peptide)
chain: GGGDSCIQFANLLYCAIGGGSGGSGG
notes: as for B5
B17: SEQ ID NO: 23 (S18 hit, pIX phage) (peptide)
chain: GGGAGCIAFVDVVYCARGGGSGGSGG
notes: as for B5
B18: SEQ ID NO: 33 (S18 hit, pIX phage) (peptide)
chain: GGGTDCVRFGETIYCIVGGGSGGSGG
notes: as for B5
B19: SEQ ID NO: 25 (S18 hit, pIX phage) (peptide)
chain: GGGRDCIIFDKTVYCVIGGGSGGSGG
notes: as for B5
B20: SEQ ID NO: 35 (S18 hit, pIX phage) (peptide)
chain: GGGRGCVVFGDNIYCIVGGGSGGSGG
notes: as for B5
B21: SEQ ID NO: 34 (S18 hit, pIX phage) (peptide)
chain: GGGYDCVSFGAVAYCPQGGGSGGSGG
notes: as for B5
B22: SEQ ID NO: 30 (S18 hit, pIX phage) (peptide)
chain: GGGAYCSFVAGDLVCQVGGGSGGSGG
notes: as for B5
B23: SEQ ID NO: 26 (S18 hit, pIX phage) (peptide)
chain: GGGKHCILFEKTVYCAKGGGSGGSGG
notes: as for B5
B24: SEQ ID NO: 29 (S18 hit, pIX phage) (peptide)
chain: GGGRACITFGKVVYCEVGGGSGGSGG
notes: as for B5
B25: SEQ ID NO: 32 (S18 hit, pIX phage) (peptide)
chain: GGGSDCVLFGSKLFCSAGGGSGGSGG
notes: as for B5
B26: SEQ ID NO: 24 (S18 hit, pIX phage) (peptide)
chain: GGGAKCIAFGNSVYCLNGGGSGGSGG
notes: as for B5
B27: P173 phage (S18, pIX) (peptide)
chain: GGGTDCVIFGLETYCLRGGGSGGSGG
notes: pIX phagemid display; also called PP173; not shown: M13 phage coat protein pIX (MSVL...)
B28: SEQ ID NO: 28 (S18 hit, pIX phage) (peptide)
chain: GGGTDCIRFGVLWYCLVGGGSGGSGG
notes: as for B5
B29: SEQ ID NO: 40 (S19 hit, pIX phage) (peptide)
chain: GGGAFCRLDFNQWLTCLVGGGSGGSGG
notes: as for B5
B30: SEQ ID NO: 38 (S19 hit, pIX phage) (peptide)
chain: GGGYDCMIRADGSLICWCGGGSGGSGG
notes: as for B5
B31: P180 phage (S19, pIX) (peptide)
chain: GGGMICYLVDSGNIICYKGGGSGGSGG
notes: pIX phagemid display; also called PP180; not shown: M13 phage coat protein pIX (MSVL...)
B32: SEQ ID NO: 41 (S19 hit, pIX phage) (peptide)
chain: GGGCDCREAVSASLVCRYGGGSGGSGG
notes: as for B5
B33: SEQ ID NO: 49 (S20 hit, pIX phage) (peptide)
chain: GGGLLCATTSFRDWFVCFTGGGSGGSGG
notes: as for B5
B34: SEQ ID NO: 44 (S20 hit, pIX phage) (peptide)
chain: GGGWMCFLEGYGASLMCQCGGGSGGSGG
notes: as for B5
B35: SEQ ID NO: 45 (S20 hit, pIX phage) (peptide)
chain: GGGDSCCSFLTDGTVVCSLGGGSGGSGG
notes: as for B5
B36: SEQ ID NO: 46 (S20 hit, pIX phage) (peptide)
chain: GGGYICTPSDIDSWYICYLGGGSGGSGG
notes: as for B5
B37: SEQ ID NO: 47 (S20 hit, pIX phage) (peptide)
chain: GGGSVCVGTAFPGWMVCGPGGGSGGSGG
notes: as for B5
B38: SEQ ID NO: 43 (S20 hit, pIX phage) (peptide)
chain: GGGPTCDSATRRVLTICADGGGSGGSGG
notes: as for B5
B39: P177 phage (S16, pIX) (peptide)
chain: GGGDACTMVFLWCSLGGGSGGSGG
notes: pIX phagemid display; also called PP177; not shown: M13 phage coat protein pIX (MSVL...)
B40: P178 phage (S17, pIX) (peptide)
chain: GGGRWCYFWWITICELGGGSGGSGG
notes: pIX phagemid display; also called PP178; not shown: M13 phage coat protein pIX (MSVL...)

What follows are binders tested against T1, Human extracellular EGFR-His6 (sEGFR-His6) (human, UniProt P00533 25-645) (assay: phage ELISA, coated sEGFR-His6).
T1 construct: Monomer, expressed in HEK293E cells, glycosylated; also called sEGFR-6×His; monomeric sEGFR
Method: (§1) The plates were held overnight at room temperature, washed twice with TBST (0.5M Tris Base, 9% NaCl, 0.05% tween, pH 7.6), and loaded with 200 μL per well of Starting Block (Pierce). […] The plates were held at room temperature for 1.5 hours for blocking. Plates were then washed twice with TBST and phage were added. The phage solutions were crude phage supernatant from overnight cultures diluted four-fold with Starting Block. After a one-hour incubation, the plates were washed thrice with TBST and 100 μL of a 1:5000 dilution of phage binding antibody conjugate (a-M13-HRP) was added to the wells. […] After a one-hour incubation the plates were washed five times with TBST, 100 μL of POD (BM Chemiluminescence ELISA substrate; Roche Applied Science) was added, and chemiluminescene recorded.
B1: no binding.

Each binder was assayed against T2, Control-MMB (CNTO 360) (Homo sapiens (Human), UniProt P0DOX5 111-449 = IgG part) (assay: phage ELISA, protein coated at 5 ug per mL).
T2 construct: Described as human IgG1 heavy chain dimer absent the variable and most of the CH1 domains; also called blank mimetibody scaffold protein
B1: no binding.

The binders below were run against T1, Human extracellular EGFR-His6 … (assay: phage ELISA, protein coated at 5 ug per mL, chemiluminescence).
Method: as §1
In the case of B1, the “Relative Signal” value is reported as 6.

These binders were tested against T3, sEGFR-MMB (dimeric sEGFR mimetibody) (human) in the same assay as above.
T3 construct: Disulfide linked homodimer, expressed in 293E cells; also called sEGFR-Fc
T3 sequence (chain, as listed by the source limits assumed): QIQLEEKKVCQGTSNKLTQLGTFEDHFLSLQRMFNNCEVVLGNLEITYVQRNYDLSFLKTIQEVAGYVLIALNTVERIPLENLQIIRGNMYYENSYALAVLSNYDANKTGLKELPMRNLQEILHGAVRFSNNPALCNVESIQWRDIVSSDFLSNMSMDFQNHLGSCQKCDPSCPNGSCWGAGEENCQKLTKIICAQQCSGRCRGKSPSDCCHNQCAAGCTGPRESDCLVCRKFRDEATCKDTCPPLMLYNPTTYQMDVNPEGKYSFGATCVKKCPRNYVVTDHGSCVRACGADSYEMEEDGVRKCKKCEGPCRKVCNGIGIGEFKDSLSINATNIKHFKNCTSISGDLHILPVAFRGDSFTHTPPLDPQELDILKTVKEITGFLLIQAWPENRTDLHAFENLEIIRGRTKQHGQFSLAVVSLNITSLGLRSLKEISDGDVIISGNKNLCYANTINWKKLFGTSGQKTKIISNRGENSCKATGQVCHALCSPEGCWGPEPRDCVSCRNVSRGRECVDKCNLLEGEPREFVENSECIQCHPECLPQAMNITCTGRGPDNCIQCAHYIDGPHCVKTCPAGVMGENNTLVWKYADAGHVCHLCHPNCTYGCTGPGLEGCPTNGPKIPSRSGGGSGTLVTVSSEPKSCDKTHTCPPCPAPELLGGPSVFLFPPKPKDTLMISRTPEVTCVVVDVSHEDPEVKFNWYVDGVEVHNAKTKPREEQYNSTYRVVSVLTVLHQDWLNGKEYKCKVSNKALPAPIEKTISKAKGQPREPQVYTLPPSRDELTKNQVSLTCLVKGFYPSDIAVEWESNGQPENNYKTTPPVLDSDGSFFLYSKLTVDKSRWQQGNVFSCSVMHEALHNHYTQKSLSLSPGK
Method: as §1
In the case of B1, the “Relative Signal” value is reported as 3940.

These binders were tested against T3, sEGFR-MMB (dimeric sEGFR mimetibody) (assay: ELISA, luminescence; sEGFR-MMB immobilized, MMB titrated).
B2: binds.

What follows are binders tested against T2, Control-MMB (CNTO 360) (assay: phage ELISA, luminescence; Control-MMB coated on the wells [panel A]).
B3: no binding. B4: no binding.

What follows are binders tested against T3, sEGFR-MMB (dimeric sEGFR mimetibody) (assay: phage ELISA on coated sEGFR-MMB, chemiluminescence (background typically <200 units)).
In the case of B3, the ELISA signal is reported as 6790 units. With B5 the ELISA signal was 1520 units. For B6, the ELISA signal was 5720 units. In the case of B7, the ELISA signal is reported as 1110 units. B8 gave an ELISA signal of 3670 units. B9 showed an ELISA signal of 1780 units. B10 gave an ELISA signal of 1360 units. B11 gave an ELISA signal of 1160 units. Binder B12 has an ELISA signal of 9380 units. Work on B13 yielded an ELISA signal of 13300 units. B14 was tested, and the ELISA signal was 3080 units. B15 was tested, and the ELISA signal was 1420 units.

Molecular target: T3, sEGFR-MMB (dimeric sEGFR mimetibody)
Test: as above
Remark: another data set of the same source
Work on B16 yielded an ELISA signal of 53200 units. For B17, the ELISA signal was 6380 units. B18 was tested, and the ELISA signal was 13300 units. Binder B19 has an ELISA signal of 17100 units. Binder B20 has an ELISA signal of 22000 units. Work on B21 yielded an ELISA signal of 3200 units. B22 gave an ELISA signal of 19800 units. With B23 the ELISA signal was 9110 units. B24 showed an ELISA signal of 30700 units. Work on B25 yielded an ELISA signal of 35300 units. For B26, the ELISA signal was 31500 units. Work on B27 yielded an ELISA signal of 37900 units. Binder B28 has an ELISA signal of 4750 units.

Molecular target: T3, sEGFR-MMB (dimeric sEGFR mimetibody)
Test: as above
Remark: another data set of the same source
Binder B29 has an ELISA signal of 2580 units. With B30 the ELISA signal was 1290 units. With B31 the ELISA signal was 8810 units. With B4 the ELISA signal was 14000 units. B32 was tested, and the ELISA signal was 3350 units.

Molecular target: T3, sEGFR-MMB (dimeric sEGFR mimetibody)
Test: as above
Remark: another data set of the same source
With B33 the ELISA signal was 4510 units. With B34 the ELISA signal was 4800 units. B35 was tested, and the ELISA signal was 9540 units. B36 showed an ELISA signal of 6620 units. B37 was tested, and the ELISA signal was 4770 units. Binder B38 has an ELISA signal of 5420 units.

Molecular target: T3, sEGFR-MMB (dimeric sEGFR mimetibody)
Test: as above
Remark: another data set of the same source
Method: The protein solution was removed and wells were rinsed twice with Tris-Buffered Saline containing 0.05% Tween-20 (TBS-T) using a plate washer (Embla). The wells were blocked with Starting Block in TBS for 1 hr at room temperature and rinsed twice with TBS-T. An equal volume of phage supernatant and Starting Block in TBS were incubated in the wells for 1 hr at room temperature, and the wells were rinsed five times with TBS-T. Anti-M13/horseradish peroxidase conjugate (Amersham), diluted 1:5000 in Starting Block in TBS, was added into the wells and incubated for 1 hour at room temperature, and then the wells were rinsed five times with TBS-T. Finally, chemiluminescent peroxidase substrate (Roche) was added to the wells, and chemiluminescence was measured on a Tecan plate reader.
B39 was tested, and the ELISA signal was 8660 units. B40 was tested, and the ELISA signal was 7910 units.

These binders were tested against Streptavidin alone (assay: phage ELISA, luminescence; streptavidin-coated wells without receptor [panel C]).
Method: Confirmatory Phage ELISA. Phage were amplified in XL-1 Blue host cells and purified by precipitation with 6% polyethylene glycol-8000/0.5 M sodium chloride. The precipitated phage were resuspended in phosphate-buffered saline in a volume that was 1/100th the original culture volume. […] The binding reaction was incubated for 1 hr at room temperature, and then bound phage were detected with anti-M13/HRP as above. For ELISAs with biotinylated receptors, streptavidin at 5 μg/ml was coated in the wells overnight at 4° C. […] The wells were rinsed with TBS-T and then blocked with Starting Block. Bound phage were washed and detected with anti-M13/HRP as described above.
B3: no binding. B4: no binding.

Each binder was assayed against T4, biotinylated sEGFR-His6 (human, UniProt P00533 25-645, biotinylated (reagent and sites not stated)) (assay: phage ELISA, luminescence; biotinylated receptor captured on streptavidin [panel C]).
T4 construct: Captured on streptavidin in the ELISA; also called b-sEGFR-His; b-sEGFR-His6
B3: no binding.
